In patent publication KR20220013297A (dated 2022):

Legend:
[1] = target: T1, SARS-CoV-2 바이러스 표면 단백질 (RBD), WT (SARS-CoV-2, UniProt P0DTC2 319-541); assay: BLI (Octet), Full IgG on RBD WT
[2] = target: T1, SARS-CoV-2 바이러스 표면 단백질 (RBD), WT; assay: BLI (Octet), Full IgG culture supernatant on SARS-CoV-2 RBD

B1: No. 32 항체 (Full IgG) (antibody, V domains shown)
VH: EVQLVQSGGGLIQPGGSLRLSCAASEFIVSSNYMTWVRQAPGKGLEWVSIIYPGGSTYYADSVKGRFTISRDNSKNTLYLRMNSLRAEDTAVYYCARDLPLTGTTLDYWGQGTLVTVSS
VL: not shown
B1 gave a Kd [1] of 0.305 nM, a koff [1] of 0.000193 s⁻¹ and a kon [1] of 633000 M⁻¹ s⁻¹. The Kd [2] was 0.147 nM.
